The record followed here is patent US20210095300, “INTERFERING WITH HD-ZIP TRANSCRIPTION FACTOR REPRESSION OF GENE EXPRESSION TO PRODUCE PLANTS WITH ENHANCED TRAITS” (Monsanto Technology LLC, published 2021).

Usually Kd stands for the constant that tells how readily two partners part at equilibrium.

Positions count from the first letter of the chain named.

Data set [1] addresses T1, ATHB17Δ113-C243S-C246S (Arabidopsis thaliana, UniProt Q8S9N6 SEQ:1-162).
T1 chain: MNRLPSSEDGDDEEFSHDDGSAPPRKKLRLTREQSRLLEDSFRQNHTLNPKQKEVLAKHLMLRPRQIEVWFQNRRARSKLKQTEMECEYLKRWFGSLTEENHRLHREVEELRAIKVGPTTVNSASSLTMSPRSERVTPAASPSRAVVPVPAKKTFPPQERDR
The data set can be described thus: SPR. To be noted: chain copies: 2 (homodimer, inferred). The text has this: (§1) HD-Zip I and II proteins bind to similar cis elements (CAAT(N)ATTG) under in vitro conditions (Sessa et al., EMBO J 12:3507-3517, 1993); Meijer et al., Mol Gen Genet 263:12-21, 2000); Frank et al., Plant J Cell Molec Biol 15:413-421, 1998); Deng et al., Plant Mol Biol 49:601-610, 2002). HD-Zip II members bind preferentially to the pseudo-palindromic sequence CAAT(C/G)ATTG (SEQ ID NO:55) (Sessa et al., EMBO J 12:3507-3517, 1993), whereas members of the HD-Zip I subfamily bind preferentially to a pseudo-palindromic sequence that differs from that of HD-Zip II at the central nucleotide (CAAT(A/T)ATTG) (SEQ ID NO:56) (Ariel et al., Trends Plant Sci 12:419-426, 2007). The DNA-binding properties of ATHB17Δ113 was tested in vitro using a surface plasmon resonance (SPR) assay for both class I and class II recognition sequences. The oligonucleotides used in this assay were […] (Class II), […] (Class I), and […] (non consensus), where the pseudo-palindromic sequences flanked by four nucleotides at the 5′ end and 3′end of the oligo are underlined.
(§2) ATHB17 amino acid substitutions and domain deletions were generated by comparing the ATHB17 protein sequence with those of mammalian HD and other plant HD-Zip transcription factors. These variants were evaluated for their DNA binding properties using SPR on Biacore 2000 as described in Example 2.

Data set [2] deals with T2, ATHB17Δ113-C243S (Arabidopsis thaliana, UniProt Q8S9N6 SEQ:1-162).
T2 chain: T1 chain with S133C
The data set can be described thus: SPR. To be noted: chain copies: 2 (homodimer, inferred).
From the text: as §1, §2

The target in data set [3] is T3, ATHB17Δ113-C246S (Arabidopsis thaliana, UniProt Q8S9N6 SEQ:1-162).
T3 chain: T1 chain with S130C
Description: SPR. To be noted: chain copies: 2 (homodimer, inferred).
From the text: as §1, §2

For data set [4], the target named is T4, ATHB17Δ113-F155L (Arabidopsis thaliana, UniProt Q8S9N6 SEQ:1-162).
T4 chain: T1 chain with W70F, S130C, S133C
Description: SPR. To be noted: chain copies: 2 (homodimer, inferred).
From the text: as §1, §2

In data set [5] the target is T5, ATHB17Δ113-C200A-C243S-C246S (Arabidopsis thaliana, UniProt Q8S9N6 SEQ:1-162).
T5 chain: T1 chain with C87A
The data set can be described thus: SPR.
From the text: as §1, §2

The target in data set [6] is T6, ATHB17Δ113-T196A-L203A-L210A-L217A-L224A (Arabidopsis thaliana, UniProt Q8S9N6 SEQ:1-162).
T6 chain: T1 chain with T83A, L90A, L97A, L104A, L111A, S130C, S133C
Description: SPR; leucine zipper mutant. A general note: SPR reads the build-up and loss of mass on a sensor chip optically.

Data set [7] addresses T7, ATHB17Δ113-Δ194-224 (Arabidopsis thaliana).
T7 chain: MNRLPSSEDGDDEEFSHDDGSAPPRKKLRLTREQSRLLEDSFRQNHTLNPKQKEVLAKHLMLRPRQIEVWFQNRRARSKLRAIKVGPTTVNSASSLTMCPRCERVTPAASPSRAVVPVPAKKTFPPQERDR
The data set can be described thus: SPR; leucine zipper deletion.
From the text: as §1, §2

Data set [8] concerns the target T8, ATHB17Δ113-V182A-Q185A-N186A (Arabidopsis thaliana, UniProt Q8S9N6 SEQ:1-162).
T8 chain: T1 chain with V69A, Q72A, N73A, S130C, S133C
Description: SPR; no binding within the concentration range used.
From the text: as §1, §2

The target of data set [9] is T9, ATHB17Δ113-Δ138-195 (Arabidopsis thaliana).
T9 chain: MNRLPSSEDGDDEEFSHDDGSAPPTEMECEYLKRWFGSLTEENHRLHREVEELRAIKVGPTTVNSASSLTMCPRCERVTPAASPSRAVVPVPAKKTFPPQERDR
The data set can be described thus: SPR; homeodomain deletion.
From the text: as §1, §2

The target in data set [10] is T10, ATHB17Δ113 (Arabidopsis thaliana, UniProt Q8S9N6 SEQ:1-162).
T10 chain: T1 chain with S130C, S133C
The data set can be described thus: SPR; Biacore 2000; kon 42.3e5, koff 880.6e-4. To be noted: chain copies: 2 (homodimer, inferred).
From the text: as §1, §2

Data set [11] addresses T11, ATHB17Δ113-R190K (Arabidopsis thaliana, UniProt Q8S9N6 SEQ:1-162, R190K (full-length numbering)).
T11 sequence: T1 chain with R77K, S130C, S133C
The data set can be described thus: SPR; reduced affinity to BS2. The note with it: chain copies: 2 (homodimer, inferred).

The target of data set [12] is T12, ATHB17Δ113-W183F (Arabidopsis thaliana, UniProt Q8S9N6 SEQ:1-162).
T12 chain: T1 chain with W70F, S130C, S133C
The data set can be described thus: SPR; asterisked in table; text says 11 uM, significantly reduced but not completely suppressed. The note with it: chain copies: 2 (homodimer, inferred).
From the text: as §1, §2

For data set [13], the target named is T8, ATHB17Δ113-V182A-Q185A-N186A. The data set can be described thus: SPR; loses interaction with BS1.
From the text: as §1, §2

For data set [14], the target named is T11, ATHB17Δ113-R190K. The data set can be described thus: SPR; no significant change vs parent. To be noted: chain copies: 2 (homodimer, inferred).
Data set [15] has as its target T9, ATHB17Δ113-Δ138-195. The data set can be described thus: SPR; homeodomain deletion; similar results stated.
From the text: as §1, §2

For data set [16], the target named is T10, ATHB17Δ113. The data set can be described thus: SPR; Biacore 2000; unit from p118. To be noted: chain copies: 2 (homodimer, inferred).
The target in data set [17] is T10, ATHB17Δ113. Description: SPR; random DNA did not interact with any protein tested. The note with it: chain copies: 2 (homodimer, inferred).
From the text: as §1, §2

For data set [18], the target named is T1, ATHB17Δ113-C243S-C246S. The data set can be described thus: SPR; random DNA. The note with it: chain copies: 2 (homodimer, inferred).
From the text: as §1, §2

The target of data set [19] is T12, ATHB17Δ113-W183F. Description: SPR; random DNA. To be noted: chain copies: 2 (homodimer, inferred).
From the text: as §1, §2

For data set [20], the target named is T2, ATHB17Δ113-C243S. Description: SPR; random DNA. The note with it: chain copies: 2 (homodimer, inferred).
From the text: as §1, §2

In data set [21] the target is T9, ATHB17Δ113-Δ138-195. The data set can be described thus: SPR; random DNA.
From the text: as §1, §2

Data set [22] addresses T3, ATHB17Δ113-C246S. The data set can be described thus: SPR; random DNA. The note with it: chain copies: 2 (homodimer, inferred).
From the text: as §1, §2

The target of data set [23] is T4, ATHB17Δ113-F155L. The data set can be described thus: SPR; random DNA. To be noted: chain copies: 2 (homodimer, inferred).
From the text: as §1, §2

Data set [24] deals with T5, ATHB17Δ113-C200A-C243S-C246S. Description: SPR; random DNA.
From the text: as §1, §2

For data set [25], the target named is T8, ATHB17Δ113-V182A-Q185A-N186A. The data set can be described thus: SPR; random DNA.
From the text: as §1, §2

The target in data set [26] is T7, ATHB17Δ113-Δ194-224. Description: SPR; random DNA.
From the text: as §1, §2

Data set [27] concerns the target T6, ATHB17Δ113-T196A-L203A-L210A-L217A-L224A. The data set can be described thus: SPR; random DNA.
From the text: as §1, §2

B1: Class II oligo (BS2) (dsDNA)
DNA 1: CAGACAATCATTGCGGC
DNA 2: GCCGCAATGATTGTCTG
Turning to B1, the equilibrium dissociation constant (Kd) was determined as 41.1 nM in [1]; 82.2 nM in data set [2]; 63.6 nM in data set [3]; 3630 nM in [4]; 4800 nM in data set [7]; 20.4 nM in data set [10]. For the same molecule, the Kd turned out to be 68.2 nM in [11] and 11000 nM in data set [12]. The binding result in data set [5], in data set [6], in data set [8] and in data set [9] was “no binding” throughout.

B2: Class I oligo (BS1) (dsDNA)
DNA 1: CAGACAATTATTGCGGC
DNA 2: GCCGCAATAATTGTCTG
Take B2: the binding result in data set [13] and in [15] was “no binding” in each case. Also, the dissociation constant Kd in [14] was found to be 25.7 nM; in data set [16], 37.7 nM.

B3: non consensus oligo (random DNA) (dsDNA)
DNA 1: CAGCTCAGTCTGACGGC
DNA 2: GCCGTCAGACTGAGCTG
As for B3, the binding result in data set [17], in data set [18], in data set [19], in data set [20], in data set [21] and in data set [22] was “no binding” in each case. The binding result in data set [23], in [24], in [25], in data set [26] and in data set [27] was “no binding” throughout.
